# Data: US20250152742A1, “COMPOSITIONS AND METHODS FOR NEUROLOGICAL DISEASES” (Trames Bio, Inc., priority 2022, published 2025)
# B1: CODA75: non-responding chimeric engineered receptor used as the negative control (protein)
# chain: MRCSPGGVWLALAASLLHVSLQGEFQRKLYKELVKNYNPLERPVANDSQPLTVYFSLSLLQIMDVDEKNQVLTTNIWLQMSWTDHYLQWNVSEYPGVKTVRFPDGQIWKPDILLYNSADERFDATFHTNVLVNSSGHCQYLPPGIFKSSCYIDVRWFPFDVQHCKLKFGSWSYGGWSLDLQMQEADISGYIPNGEWDLVGIPGKRSERFYECCKEPYPDVTFTVTMRRRTGYYLIQMYIPSLLIVILSWISFWINMDAAPARVGLGITTVLTMTTQSSGSEIMPATSDSVPLIAQAIDIWMAVCLLFVFSALLEYAAVNFVSRQHKELLRFRRKRRHHKSPMLNLFQEDEAGEGRFNFSAYGMGPACLQAKDGISVKGANNSNTTNPPPAPSKSPEEMRKLFIQRAKKIDKISRIGFPMAFLIFNMFYWIIYKIVRREDVHNQ
# modifications: synthetic sequence of chimeric LGIC
# notes: non-responding chimeric engineered receptor used as the negative control
# B2: CODA217: engineered receptor: W77F in SEQ ID NO: 33 (protein)
# chain: MRCSPGGVWLALAASLLHVSLQGEFQRKLYKELVKNYNPLERPVANDSQPLTVYFSLSLLQIMDVDEKNQVLTTNIFLQMSWTDHYLQWNVSEYPGVKTVRFPDGQIWKPDILLYNSADERFDATFHTNVLVNSSGHCQYLPPGIFKSSCPMDLKNFPMDVQTCKLKFGSWSYGGWSLDLQMQEADISGYIPNGEWDLVGIPGKRSERFYECCKEPYPDVTFTVTMRRRMGYYLIQMYIPSLLIVILSWISFWINMDAAPARVGLGITTVLTMTTQSSGSRASLPKVSYVKAIDIWMAVCLLFVFSALLEYAAVNFVSRQHKELLRFRRKRRHHKSPMLNLFQEDEAGEGRFNFSAYGMGPACLQAKDGISVKGANNSNTTNPPPAPSKSPEEMRKLFIQRAKKIDKISRIGFPMAFLIFNMFYWIIYKIVRREDVHNQ
# modifications: synthetic sequence of chimeric LGIC
# Tested on: engineered chimeric receptor SEQ ID NO: 33 and its mutants (human α7-nAChR ligand binding domain / human GlyRα1 ion pore domain) in Lenti-X 293T cells
# Assay: YFP fluorescence quenching anion reporter plate reader assay (percent quench, EC50)
# Format: cell-based
# Conditions: for YFP fluorescence quenching using CNL001 (percent quench): receptor named in row; for YFP fluorescence quenching using Facinicline, 30 nM fac: ligand Facinicline 30 nM; for YFP fluorescence quenching using Facinicline, 300 nM fac: ligand Facinicline 300 nM; for YFP fluorescence quenching using Facinicline, 30 uM fac: ligand Facinicline 30 uM; for YFP fluorescence quenching using TC-6987, 1 uM tc6987: ligand TC-6987 1 uM; for YFP fluorescence quenching using TC-6987, 10 uM tc6987: ligand TC-6987 10 uM; for YFP fluorescence quenching using TC-6987, 500 uM tc6987: ligand TC-6987 500 uM; for YFP fluorescence quenching using Varenicline, 3 nM var: ligand Varenicline 3 nM; for YFP fluorescence quenching using Varenicline, 30 nM var: ligand Varenicline 30 nM; for YFP fluorescence quenching using Varenicline, 300 nM var: ligand Varenicline 300 nM; for YFP fluorescence quenching using Varenicline, 500 nM var: ligand Varenicline 500 nM; for YFP fluorescence quenching using Varenicline, 1 uM var: ligand Varenicline 1 uM
# Outline: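 Percent quench compares mean YFP signal over the final 10 s with the 15 s baseline before ligand, added in iodide-containing extracellular solution (pH 7.2). Cells were LX293T carrying a YFP anion reporter, transiently transfected with the channel construct; plates were preincubated 30 min at 37 °C.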
# [1] = 1 nM CNL001, first column so headed
# [2] = 1 nM CNL001, second column so headed
# [3] = 3 nM brd (TC-5619/Bradanicline)
# [4] = 10 nM CNL001, first column so headed
# [5] = 10 nM CNL001, second column so headed
# [6] = 30 nM brd (TC-5619/Bradanicline)
# [7] = 50 nM CNL001, first column so headed
# [8] = 50 nM CNL001, second column so headed
# [9] = 100 nM CNL001, first column so headed
# [10] = 100 nM CNL001, second column so headed
# [11] = 300 nM brd (TC-5619/Bradanicline)
# [12] = 1 uM CNL001, first column so headed
# [13] = 1 uM CNL001, second column so headed
molecule,measurement,setting,value
B1,YFP fluorescence quenching using CNL001 (percent quench),[1],−8.496%
same,YFP fluorescence quenching using CNL001 (percent quench),[2],−2.266%
same,YFP fluorescence quenching using TC-5619/Bradanicline (percent quench),1 nM brd (TC-5619/Bradanicline),−13.39%
same,YFP fluorescence quenching using TC-5619/Bradanicline (percent quench),[3],−15.78%
same,YFP fluorescence quenching using CNL001 (percent quench),[4],1.816%
same,YFP fluorescence quenching using CNL001 (percent quench),[5],−4.649%
same,YFP fluorescence quenching using TC-5619/Bradanicline (percent quench),10 nM brd (TC-5619/Bradanicline),−13.47%
same,YFP fluorescence quenching using TC-5619/Bradanicline (percent quench),[6],−16.41%
same,YFP fluorescence quenching using CNL001 (percent quench),[7],−5.922%
same,YFP fluorescence quenching using CNL001 (percent quench),[8],−5.597%
same,YFP fluorescence quenching using ABT-126 (percent quench),50 nM abt (ABT-126),−17.07%
same,YFP fluorescence quenching using CNL001 (percent quench),[9],−8.159%
same,YFP fluorescence quenching using CNL001 (percent quench),[10],−5.058%
same,YFP fluorescence quenching (percent quench),100 nM CNL002,−7.94%
same,YFP fluorescence quenching using ABT-126 (percent quench),100 nM abt (ABT-126),−16.76%
same,YFP fluorescence quenching using AZD-0328 (percent quench),100 nM azd0328,−8.83%
same,YFP fluorescence quenching using ABT-126 (percent quench),300 nM abt (ABT-126),−16.76%
same,YFP fluorescence quenching using AZD-0328 (percent quench),300 nM azd0328,−11.15%
same,YFP fluorescence quenching using TC-5619/Bradanicline (percent quench),[11],−17.56%
same,YFP fluorescence quenching using ABT-126 (percent quench),500 nM abt (ABT-126),−14.68%
same,YFP fluorescence quenching using CNL001 (percent quench),[12],−4.272%
same,YFP fluorescence quenching using CNL001 (percent quench),[13],−1.281%
same,YFP fluorescence quenching (percent quench),1 uM CNL002,−9.81%
same,YFP fluorescence quenching using ABT-126 (percent quench),1 uM abt (ABT-126),−16%
same,YFP fluorescence quenching using ABT-126 (percent quench),3 uM abt (ABT-126),−14.11%
same,YFP fluorescence quenching using ABT-126 (percent quench),10 uM abt (ABT-126),−13.98%
same,YFP fluorescence quenching (percent quench),10 uM ach (acetylcholine),−12.88%
same,YFP fluorescence quenching (percent quench),30 uM CNL002,−15.27%
same,YFP fluorescence quenching using ABT-126 (percent quench),30 uM abt (ABT-126),−21.05%
same,YFP fluorescence quenching (percent quench),30 uM ach (acetylcholine),−18.67%
same,YFP fluorescence quenching using AZD-0328 (percent quench),30 uM azd0328,−11.92%
same,YFP fluorescence quenching using ABT-126 (percent quench),50 uM abt (ABT-126),−21.35%
same,YFP fluorescence quenching (percent quench),50 uM ach (acetylcholine),−0.29%
same,YFP fluorescence quenching using ABT-126 (percent quench),100 uM abt (ABT-126),−24.12%
same,YFP fluorescence quenching (percent quench),100 uM ach (acetylcholine),−14.46%
same,YFP fluorescence quenching (percent quench),300 uM ach (acetylcholine),−16.31%
same,YFP fluorescence quenching (percent quench),500 uM ach (acetylcholine),−17.41%
same,YFP fluorescence quenching (percent quench),1 mM ach (acetylcholine),−16.46%
same,YFP fluorescence quenching (percent quench),3 mM ach (acetylcholine),−12.38%
same,YFP fluorescence quenching (percent quench),5 mM ach (acetylcholine),−20.88%
same,YFP fluorescence quenching (percent quench),10 mM ach (acetylcholine),−8.69%
same,"YFP fluorescence quenching using Facinicline, 30 nM fac",,−11.68
same,"YFP fluorescence quenching using Facinicline, 100 nM fac",ligand Facinicline 100 nM,4.35
same,"YFP fluorescence quenching using Facinicline, 300 nM fac",,−10.55
same,"YFP fluorescence quenching using Facinicline, 30 uM fac",,−5.25
same,"YFP fluorescence quenching using TC-6987, 1 uM tc6987",,−11.79
same,"YFP fluorescence quenching using TC-6987, 10 uM tc6987",,−14.31
same,"YFP fluorescence quenching using TC-6987, 500 uM tc6987",,−19.65
same,"YFP fluorescence quenching using Varenicline, 3 nM var",first column,4.161
same,"YFP fluorescence quenching using Varenicline, 3 nM var",second column,−6.216
same,"YFP fluorescence quenching using Varenicline, 30 nM var",first column,−5.173
same,"YFP fluorescence quenching using Varenicline, 30 nM var",second column,−6.593
same,"YFP fluorescence quenching using Varenicline, 300 nM var",first column,−5.733
same,"YFP fluorescence quenching using Varenicline, 300 nM var",second column,−7.312
same,"YFP fluorescence quenching using Varenicline, 500 nM var",first column,−10.35
same,"YFP fluorescence quenching using Varenicline, 500 nM var",second column,−7.586
same,"YFP fluorescence quenching using Varenicline, 1 uM var",first column,−5.637
same,"YFP fluorescence quenching using Varenicline, 1 uM var",second column,−3.757
B2,YFP fluorescence quenching using CNL001 (percent quench),[1],−22.273%
same,YFP fluorescence quenching using CNL001 (percent quench),[2],−19.415%
same,YFP fluorescence quenching using TC-5619/Bradanicline (percent quench),[3],−12.1%
same,YFP fluorescence quenching using CNL001 (percent quench),[4],−9.563%
same,YFP fluorescence quenching using CNL001 (percent quench),[5],6.398%
same,YFP fluorescence quenching using TC-5619/Bradanicline (percent quench),[6],−14.72%
same,YFP fluorescence quenching using CNL001 (percent quench),[7],61.938%
same,YFP fluorescence quenching using CNL001 (percent quench),[8],66.837%
same,YFP fluorescence quenching using ABT-126 (percent quench),50 nM abt (ABT-126),37.81%
same,YFP fluorescence quenching using CNL001 (percent quench),[9],79.791%
same,YFP fluorescence quenching using CNL001 (percent quench),[10],80.908%
same,YFP fluorescence quenching (percent quench),100 nM CNL002,67.81%
same,YFP fluorescence quenching using ABT-126 (percent quench),100 nM abt (ABT-126),57.31%
same,YFP fluorescence quenching using AZD-0328 (percent quench),100 nM azd0328,−7.57%
same,YFP fluorescence quenching using ABT-126 (percent quench),300 nM abt (ABT-126),12.61%
same,YFP fluorescence quenching using AZD-0328 (percent quench),300 nM azd0328,7.08%
same,YFP fluorescence quenching using TC-5619/Bradanicline (percent quench),[11],−6.3%
same,YFP fluorescence quenching using CNL001 (percent quench),[12],83.444%
same,YFP fluorescence quenching using CNL001 (percent quench),[13],83.905%
same,YFP fluorescence quenching (percent quench),1 uM CNL002,69.42%
same,YFP fluorescence quenching using ABT-126 (percent quench),1 uM abt (ABT-126),66.05%
same,YFP fluorescence quenching (percent quench),10 uM ach (acetylcholine),−5.86%
same,YFP fluorescence quenching (percent quench),30 uM CNL002,73.64%
same,YFP fluorescence quenching using AZD-0328 (percent quench),30 uM azd0328,81.59%
same,YFP fluorescence quenching (percent quench),100 uM ach (acetylcholine),70.06%
same,YFP fluorescence quenching (percent quench),1 mM ach (acetylcholine),68.71%
same,YFP fluorescence quenching (percent quench),3 mM ach (acetylcholine),73.45%
same,"YFP fluorescence quenching using Facinicline, 30 nM fac",,−10.14
same,"YFP fluorescence quenching using Facinicline, 300 nM fac",,68.29
same,"YFP fluorescence quenching using Facinicline, 30 uM fac",,87.35
same,"YFP fluorescence quenching using TC-6987, 1 uM tc6987",,−10.35
same,"YFP fluorescence quenching using TC-6987, 10 uM tc6987",,−13.93
same,"YFP fluorescence quenching using TC-6987, 500 uM tc6987",,−7.54
same,"YFP fluorescence quenching using Varenicline, 3 nM var",first column,5.662
same,"YFP fluorescence quenching using Varenicline, 3 nM var",second column,7.57
same,"YFP fluorescence quenching using Varenicline, 30 nM var",first column,13.968
same,"YFP fluorescence quenching using Varenicline, 30 nM var",second column,19.079
same,"YFP fluorescence quenching using Varenicline, 300 nM var",first column,16.183
same,"YFP fluorescence quenching using Varenicline, 300 nM var",second column,18.025
same,"YFP fluorescence quenching using Varenicline, 500 nM var",first column,23.366
same,"YFP fluorescence quenching using Varenicline, 500 nM var",second column,19.206
same,"YFP fluorescence quenching using Varenicline, 1 uM var",first column,34.69
same,"YFP fluorescence quenching using Varenicline, 1 uM var",second column,30.504
